Data published in patent publication US20220145295A1, “ENZYMATIC RNA SYNTHESIS” (President and Fellows of Harvard College, priority 2018, published 2022).

Tested on: poly dT-15-mer initiator oligonucleotide
Experiment: Initial activity screen of polymerase μ R387K with divalent cations (rate of ssDNA generation)
Assay type: biochemical
Conditions: 200 μM dNTP, 37° C.
Procedure: FIGS. 3A to 3C. […] Denaturing gel electrophoresis analysis of dATP incorporation (FIG. 3B) and rATP incorporation (FIG. 3C) at nucleotide concentrations of 200-50 μM and 5.0-0.62 mM for dATP and rATP, respectively. These reactions were supplemented with 0.25 mM Mn^2+ and Mg^2+. The control reaction consisted of all reaction components except nucleotide. For all reactions, the initiator oligonucleotide was a HPLC-purified poly dT-15-mer.
Human polymerase μ R387K was expressed and purified as described in the materials and methods. Because it was unknown under which reaction conditions polymerase μ R387K functioned optimally, several reaction parameters were initially evaluated. […] Thus, polymerase p R387K, a confirmed DNA/RNA-directed polymerase, is useful for controlled enzymatic RNA synthesis.
Expressed proteins with terminal transferase activity were screened by determining the rate of RNA generation in terms of total RNA concentration and the length/distribution of RNA produced by the protein after incubation with natural rNTPs. […] The length of the RNA produced in these reactions was determined by comparing products to a 100-nt ssDNA ladder (Simplex Biosciences) using a 15% TBE-Urea denaturing gel (Thermo EC6885) following the manufacturer's protocol. […]

B1: polymerase μ R387K: Human polymerase μ with point mutation R387K, expressed and purified; SEQ ID NO: 1 (protein, listed as Homo sapiens)
chain: MLPKRRRARVGSPSGDAASSTPPSTRFPGVAIYLVEPRMGRSRRAFLTGLARSKGFRVLDACSSEATHVVMEETSAEEAVSWQERRMAAAPPGCTPPALLDISWLTESLGAGQPVPVECRHRLEVAGPRKGPLSPAWMPAYACQRPTPLTHHNTGLSEALEILAEAAGFEGSEGRLLTFCRAASVLKALPSPVTTLSQLQGLPHFGEHSSRVVQELLEHGVCEEVERVRRSERYQTMKLFTQIFGVGVKTADRWYREGLRTLDDLREQPQKLTQQQKAGLQHHQDLSTPVLRSDVDALQQVVEEAVGQALPGATVTLTGGFRRGKLQGHDVDFLITHPKEGQEAGLLPRVMCRLQDQGLILYHQHQHSCCESPTRLAQQSHMDAFEKSFCIFRLPQPPGAAVGGSTRPCPSWKAVRVDLVVAPVSQFPFALLGWTGSKLFQRELRRFSRKEKGLWLNSHGLFDPEQKTFFQAASEEDIFRHLGLEYLPPEQRNA
0.25 mM Co^2+, worst rate
  rate of ssDNA generation: ~100 RFU/minute
Combination of Mn^2+ and Mg^2+ at 0.25 mM, highest rate
  rate of ssDNA generation: ~650 RFU/minute
